From PMC12077149 (mBio, 2025)

Biological target: the molecule itself
Assay: SEC; 24 mL Superdex-200, 150 mM NaCl, 50 mM Tris-HCl pH 8.0; MW estimated from a linear fit of MW standards

B1: 6×His-PqsE (wild type, P. aeruginosa) (enzyme)
chain: MLRLSAPGQLDDDLCLLGDVQVPVFLLRLGEASWALVEGGISRDAELVWADLCRWVADPSQVHYWLITHKHYDHCGLLPYLCPRLPNVQVLASERTCQAWKSESAVRVVERLNRQLLRAEQRLPEACAWDALPVRAVADGEWLELGPRHRLQVIEAHGHSDDHVVFYDVRRRRLFCGDALGEFDEAEGVWRPLVFDDMEAYLESLERLQRLPTLLQLIPGHGGLLRGRLAADGAESAYTECLRLCRRLLWRQSMGESLDELSEELHRAWGGQSVDFLPGELHLGSMRRMLEILSRQALPLD
notes: also called WT PqsE
stoichiometry N: 2
